Reference: IntAct's records for PubMed 10531343

B1: Synaptotagmin-6 (Mus musculus), Q9R0N8 (parent)
chain: MSGVWGAGGPRCQAALAVLASLCRARPPPLGLDVETCRSFELQSPEQSPSAADSGTSVSLLAVVVIVCGVALVAVFLFLFWKLCWMPWRKKEASSPSSANPASETLQSPSSRGNMADKLKDPSALGFLEAAVKISHTSPDIPAEVQMSVKEHIMRHTKLQRQTTEPASSTRHTSFKRHLPRQMHVSSVDYGNELPPAAAEQPTSIGRIKPELYKQKSVDGDDAKSEAAKSCGKINFSLRYDYESETLIVRILKAFDLPAKDFCGSSDPYVKIYLLPDRKCKLQTRVHRKTLNPTFDENFHFPVPYEELADRKLHLSVFDFDRFSRHDMIGEVILDNLFEASDLSRETSIWKDIQYATSESVDLGEIMFSLCYLPTAGRLTLTVIKCRNLKAMDITGYSDPYVKVSLLCDGRRLKKKKTTIKKNTLNPIYNEAIIFDIPPENMDQVSLLISVMDYDRVGHNEIIGVCRVGINAEGLGRDHWNEMLAYPRKPIAHWHSLVEVKKSFKEGTPRL
partner: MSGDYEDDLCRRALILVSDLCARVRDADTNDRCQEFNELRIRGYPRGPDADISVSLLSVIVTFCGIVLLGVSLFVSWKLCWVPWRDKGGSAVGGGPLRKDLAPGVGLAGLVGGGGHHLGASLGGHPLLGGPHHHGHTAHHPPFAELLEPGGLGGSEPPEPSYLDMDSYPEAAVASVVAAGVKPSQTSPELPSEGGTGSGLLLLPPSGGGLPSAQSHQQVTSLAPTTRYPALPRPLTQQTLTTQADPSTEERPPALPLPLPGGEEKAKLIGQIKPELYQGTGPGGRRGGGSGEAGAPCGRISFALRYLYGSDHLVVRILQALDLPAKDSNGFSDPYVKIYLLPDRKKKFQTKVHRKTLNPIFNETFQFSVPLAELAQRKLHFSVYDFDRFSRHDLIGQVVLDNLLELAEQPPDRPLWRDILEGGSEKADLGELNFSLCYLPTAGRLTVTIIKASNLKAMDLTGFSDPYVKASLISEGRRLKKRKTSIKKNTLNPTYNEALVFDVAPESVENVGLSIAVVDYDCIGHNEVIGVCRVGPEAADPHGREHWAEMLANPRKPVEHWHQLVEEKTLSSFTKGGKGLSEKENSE
B2: Synaptotagmin-6 (Mus musculus), Q9R0N8 (parent)
chain: B1 chain
partner: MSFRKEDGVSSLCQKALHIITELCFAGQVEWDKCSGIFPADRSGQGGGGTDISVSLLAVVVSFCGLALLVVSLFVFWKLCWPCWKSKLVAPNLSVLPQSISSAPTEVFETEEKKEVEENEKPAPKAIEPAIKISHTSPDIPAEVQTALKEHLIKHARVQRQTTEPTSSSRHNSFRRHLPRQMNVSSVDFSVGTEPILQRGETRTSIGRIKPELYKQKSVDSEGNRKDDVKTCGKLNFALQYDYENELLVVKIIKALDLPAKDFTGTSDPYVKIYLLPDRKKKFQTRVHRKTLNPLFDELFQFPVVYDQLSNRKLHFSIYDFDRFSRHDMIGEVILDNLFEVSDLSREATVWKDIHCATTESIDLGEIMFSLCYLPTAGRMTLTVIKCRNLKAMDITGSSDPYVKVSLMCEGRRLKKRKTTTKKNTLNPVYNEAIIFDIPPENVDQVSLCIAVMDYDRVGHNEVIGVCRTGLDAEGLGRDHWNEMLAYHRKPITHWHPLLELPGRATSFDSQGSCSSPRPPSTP
B3: Synaptotagmin-10 (Mus musculus), Q9R0N4 (parent)
chain: B2 partner
partner: B1 partner
B4: Synaptotagmin-10 (Mus musculus), Q9R0N4 (parent)
chain: B2 partner
partner: B1 chain
B5: Synaptotagmin-10 (Mus musculus), Q9R0N4 (parent)
chain: B2 partner
partner: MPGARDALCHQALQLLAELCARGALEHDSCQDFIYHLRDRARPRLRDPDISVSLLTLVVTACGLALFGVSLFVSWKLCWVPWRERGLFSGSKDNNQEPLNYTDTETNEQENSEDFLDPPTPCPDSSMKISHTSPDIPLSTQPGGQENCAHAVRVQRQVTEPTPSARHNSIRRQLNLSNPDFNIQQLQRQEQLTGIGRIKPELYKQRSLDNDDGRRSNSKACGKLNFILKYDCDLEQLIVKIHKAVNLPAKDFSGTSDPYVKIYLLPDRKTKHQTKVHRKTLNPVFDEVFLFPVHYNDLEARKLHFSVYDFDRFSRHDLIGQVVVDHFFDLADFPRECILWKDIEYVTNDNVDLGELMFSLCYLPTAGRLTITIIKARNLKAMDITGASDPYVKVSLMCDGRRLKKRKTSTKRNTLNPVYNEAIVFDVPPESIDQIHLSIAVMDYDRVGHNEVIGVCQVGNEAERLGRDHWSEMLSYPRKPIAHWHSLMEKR
B6: Synaptotagmin-9 (Mus musculus), Q9R0N9 (parent)
chain: B5 partner
partner: B1 chain
B7: Synaptotagmin-9 (Mus musculus), Q9R0N9 (parent)
chain: B5 partner
partner: B2 partner
B8: Synaptotagmin-9 (Mus musculus), Q9R0N9 (parent)
chain: B5 partner
partner: B1 partner
B9: Synaptotagmin-6 (Mus musculus), Q9R0N8 (parent)
chain: B1 chain
partner: B5 partner
B10: Synaptotagmin-3 (Mus musculus), O35681 (parent)
chain: B1 partner
partner: B2 partner
B11: Synaptotagmin-3 (Mus musculus), O35681 (parent)
chain: B1 partner
partner: B1 chain
B12: Synaptotagmin-3 (Mus musculus), O35681 (parent)
chain: B1 partner
partner: B5 partner

Variants of: B1
Conditions: with syt3_mouse Syt3, O35681

| Variant | effect of a mutation on the interaction |
| --- | --- |
| C12A | decreasing interaction |

Variants of: B2
Conditions: with syt10_mouse Syt10, Q9R0N4

| Variant | effect of a mutation on the interaction |
| --- | --- |
| C12A | decreasing interaction |

Variants of: B3
Conditions: with syt3_mouse Syt3, O35681

| Variant | effect of a mutation on the interaction |
| --- | --- |
| C13A | decreasing interaction |

Variants of: B4
Conditions: with syt6_mouse Syt6, Q9R0N8

| Variant | effect of a mutation on the interaction |
| --- | --- |
| C13A | decreasing interaction |

Variants of: B5
Conditions: with syt9_mouse Syt9, Q9R0N9

| Variant | effect of a mutation on the interaction |
| --- | --- |
| C13A | decreasing interaction |

Variants of: B6
Conditions: with syt6_mouse Syt6, Q9R0N8

| Variant | effect of a mutation on the interaction |
| --- | --- |
| C9A | decreasing interaction |

Variants of: B7
Conditions: with syt10_mouse Syt10, Q9R0N4

| Variant | effect of a mutation on the interaction |
| --- | --- |
| C9A | decreasing interaction |

Variants of: B8
Conditions: with syt3_mouse Syt3, O35681

| Variant | effect of a mutation on the interaction |
| --- | --- |
| C9A | decreasing interaction |

Variants of: B9
Conditions: with syt9_mouse Syt9, Q9R0N9

| Variant | effect of a mutation on the interaction |
| --- | --- |
| C12A | decreasing interaction |

Variants of: B10
Conditions: with syt10_mouse Syt10, Q9R0N4

| Variant | effect of a mutation on the interaction |
| --- | --- |
| C10A | decreasing interaction |

Variants of: B11
Conditions: with syt6_mouse Syt6, Q9R0N8

| Variant | effect of a mutation on the interaction |
| --- | --- |
| C10A | decreasing interaction |

Variants of: B12
Conditions: with syt9_mouse Syt9, Q9R0N9

| Variant | effect of a mutation on the interaction |
| --- | --- |
| C10A | decreasing interaction |
